{
  "source": "IntAct's records for PubMed 11313760",
  "parents": {"B1": {"name": "Prelamin-A/C (Homo sapiens), P02545-1 (parent)", "chain": "METPSQRRATRSGAQASSTPLSPTRITRLQEKEDLQELNDRLAVYIDRVRSLETENAGLRLRITESEEVVSREVSGIKAAYEAELGDARKTLDSVAKERARLQLELSKVREEFKELKARNTKKEGDLIAAQARLKDLEALLNSKEAALSTALSEKRTLEGELHDLRGQVAKLEAALGEAKKQLQDEMLRRVDAENRLQTMKEELDFQKNIYSEELRETKRRHETRLVEIDNGKQREFESRLADALQELRAQHEDQVEQYKKELEKTYSAKLDNARQSAERNSNLVGAAHEELQQSRIRIDSLSAQLSQLQKQLAAKEAKLRDLEDSLARERDTSRRLLAEKEREMAEMRARMQQQLDEYQELLDIKLALDMEIHAYRKLLEGEEERLRLSPSPTSQRSRGRASSHSSQTQGGGSVTKKRKLESTESRSSFSQHARTSGRVAVEEVDEEGKFVRLRNKSNEDQSMGNWQIKRQNGDDPLLTYRFPPKFTLKAGQVVTIWAAGAGATHSPPTDLVWKAQNTWGCGNSLRTALINSTGEEVAMRKLVRSVTVVEDDEDEDGDDLLHHHHGSHCSSSGDPAEYNLRSRTVLCGTCGQPADKASASGSGAQVGGPISSGSSASSVTVTRSYRSVGGSGGGSFGDNLVTRSYLLGNSSPRTQSPQNCSIM", "partner": "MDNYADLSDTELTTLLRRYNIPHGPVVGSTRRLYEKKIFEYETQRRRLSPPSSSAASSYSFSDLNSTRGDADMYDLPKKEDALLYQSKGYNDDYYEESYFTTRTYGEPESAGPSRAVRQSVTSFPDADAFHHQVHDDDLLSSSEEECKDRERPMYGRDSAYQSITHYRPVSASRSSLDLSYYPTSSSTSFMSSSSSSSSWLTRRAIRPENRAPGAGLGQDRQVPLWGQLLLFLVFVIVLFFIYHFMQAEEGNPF"}},
  "data": [
    {"variants_of": "B1", "details": "with emd_human EMD", "values": [
      {"variant": "R482Q", "effect of a mutation on the interaction": "with no effect"}
    ]}
  ]
}
